B1: human MAb 82.11 LALA (IgG1) (antibody, V domains shown)
VH: QAHLVESGGGVVQPGRSLRLSCAASAFNFSTNAMHWVRQAPGKGLEWVAVISYDGSHKYYADSVKGRFTISRDNSKNTLYLQMNSLRAADTAVYYCATVGVLTWPVNAEYFHHWGQGSLVSVSS
VL: QSVLTQPPSVSGAPGQRVTISCTGSSSNIGAGYDVHWYQQLPGTAPKLLICGNNNRPSGVPDRFSGSKSGTSASLAITGLQAEDEADYYCQSYDSSLTGVVFGGGTKLTVL
notes: source: HEK-293T, purified (protein A, size-exclusion chromatography)
B2: chimeric human-mouse MAb E60 (human IgG1), non-modified (antibody, V domains shown)
VH: EVQVQQSGPELVTPGASVKISCKTSGYTFTEYTVHWVKQSHGKSLEWIGGINPTSGGTNYNQRFRGKATLTVDRSSSTAYMELRSLTSEDSAVYFCAGTLYGYPFDFWGQGTTLTVSS
VL: DILMTQSPSSMSVSLGDSVSITCHASQGISGNIGWLQQKPGKSFKGLIYHGTNLEEGVPSRFSGSGSGADYSLTISSLESEDFADYYCVQYGQFPPTFGGGTKLEIK
notes: also called intact E60; E60 parent; source: HEK-293T, transfected, purified from supernatant (protein A)
B3: chimeric human-mouse MAb E60 N297Q (human IgG1, aglycosylated) (antibody, V domains shown)
VH: EVQVQQSGPELVTPGASVKISCKTSGYTFTEYTVHWVKQSHGKSLEWIGGINPTSGGTNYNQRFRGKATLTVDRSSSTAYMELRSLTSEDSAVYFCAGTLYGYPFDFWGQGTTLTVSS
VL: DILMTQSPSSMSVSLGDSVSITCHASQGISGNIGWLQQKPGKSFKGLIYHGTNLEEGVPSRFSGSGSGADYSLTISSLESEDFADYYCVQYGQFPPTFGGGTKLEIK
notes: also called modified E60; source: HEK-293T, transfected, purified from supernatant (protein A)
B4: chimeric human-mouse MAb E18 (human IgG1), non-modified (antibody, V domains shown)
VH: QIQLVQSGPELKKPGETVKISCKASGYTFTDYSMHWVKQAPGKGLKWMGWFNTETGEPTYADDFKGRFAFSLETSASTAFLQINNLKNEDTATYFCARGGDFYSVDYWGQGTSVTVSS
VL: DIQMTQTTSSLSASLGDRVTISCRASQDITNYLNWYQQKPDGTVKLLIYYTSGLHSGVPSRFSGSGSGTDYSLTISNLEQEDIATYFCQQGNTLPPTFGGGTKLEIK
notes: source: HEK-293T, transfected, purified from supernatant (protein A)
B5: chimeric human-mouse MAb E18 N297Q (human IgG1, aglycosylated) (antibody, V domains shown)
VH: QIQLVQSGPELKKPGETVKISCKASGYTFTDYSMHWVKQAPGKGLKWMGWFNTETGEPTYADDFKGRFAFSLETSASTAFLQINNLKNEDTATYFCARGGDFYSVDYWGQGTSVTVSS
VL: DIQMTQTTSSLSASLGDRVTISCRASQDITNYLNWYQQKPDGTVKLLIYYTSGLHSGVPSRFSGSGSGTDYSLTISNLEQEDIATYFCQQGNTLPPTFGGGTKLEIK
notes: as for B4
B6: chimeric human-mouse MAb E28 (human IgG1), non-modified (antibody, V domains shown)
VH: QIQLVQSGPELKKPGETVKISCKASGYTFTDYSMHWVKQTPGKGLKWLGWINPKTGEPTYVDDFKGRFAFYLETSSSTAYLQITNLKNEDTATYFCARGYDYYSVDYWGQGTLVTVSS
VL: DIQMTQTTSSLSASLGARVTISCRANQDINNYLHWYQQKPDGTIKLLVYYTSGLHSGVPSRFIGSGSGTDYSLTITNLEQEDIATYFCQQGNTLPLTFGAGTKLELK
notes: as for B4
B7: chimeric human-mouse MAb E28 N297Q (human IgG1, aglycosylated) (antibody, V domains shown)
VH: QIQLVQSGPELKKPGETVKISCKASGYTFTDYSMHWVKQTPGKGLKWLGWINPKTGEPTYVDDFKGRFAFYLETSSSTAYLQITNLKNEDTATYFCARGYDYYSVDYWGQGTLVTVSS
VL: DIQMTQTTSSLSASLGARVTISCRANQDINNYLHWYQQKPDGTIKLLVYYTSGLHSGVPSRFIGSGSGTDYSLTITNLEQEDIATYFCQQGNTLPLTFGAGTKLELK
notes: as for B4
B8: human MAb 87.1 LALA (IgG1) (antibody, V domains shown)
VH: EVQLVESGGGLVQPGRSLRLSCAASGFTFDDYAMFWVRQAPGKGLEWISGISWNSATIGYADSVKGRFTISRDNAKKSLDLQMNSLRPDDTALYYCAKGGPRGLQLLSSWVDYWGQGTLVTVSS
VL: DIQMTQSPSSLSASVGDRVTITCRASQDIRRYLNWYQQRPGRVPQLLIYTTSTLQSGVPSRFSGSGSVTDFTLTISSLQPEDFGTYYCQQSYSPPHTFGQGTKLEIK
notes: as for B1
B9: chimeric human-mouse MAb E76 (human IgG1), non-modified (antibody, V domains shown)
VH: QVTLKESGPGILQSSQTLSLTCSFSGFSLSTSSMGVSWIRQPSGKGLEWLAHIYWDDDKRYSPSLKSRLTISKDTSRNQVFLKITSVENVDSATYYCARKDGYVPYSLDYWGQGISVTVSS
VL: DIVMTQSHKFMSTSVGDRVSISCKASQAVGTAVAWYQQKPGQSPKLLIYWASTRHTGVPDRFTGSGSGTDFTLTINNVQSEDLADYFCHQYTSYPLTFGTGTKLELK
notes: as for B4
B10: chimeric human-mouse MAb E76 N297Q (human IgG1, aglycosylated) (antibody, V domains shown)
VH: QVTLKESGPGILQSSQTLSLTCSFSGFSLSTSSMGVSWIRQPSGKGLEWLAHIYWDDDKRYSPSLKSRLTISKDTSRNQVFLKITSVENVDSATYYCARKDGYVPYSLDYWGQGISVTVSS
VL: DIVMTQSHKFMSTSVGDRVSISCKASQAVGTAVAWYQQKPGQSPKLLIYWASTRHTGVPDRFTGSGSGTDFTLTINNVQSEDLADYFCHQYTSYPLTFGTGTKLELK
notes: as for B4
B11: chimeric human-mouse MAb E44 (human IgG1), non-modified (antibody, V domains shown)
VH: QVQLKESGPGLVAPSQSLSITCTVSGFSLTSYGVDWVRQSPGKGLEWLGVIWGAGSTNYNSAFRSRLSISKDNSKSQVFLKMNSLQTDDTAMYYCASGTGTGAMDYWGQGTSVTVSS
VL: DIVLTQSPATLSVTPGDSVSLSCRASQSISNNLHWYQQKSHESPRLLIFYSSQSISGIPSRFSGSGSGTDFTLRINSVETEDFGMYFCQQSNNWPHTFGRGTKLDMK
notes: as for B4
B12: chimeric human-mouse MAb E44 N297Q (human IgG1, aglycosylated) (antibody, V domains shown)
VH: QVQLKESGPGLVAPSQSLSITCTVSGFSLTSYGVDWVRQSPGKGLEWLGVIWGAGSTNYNSAFRSRLSISKDNSKSQVFLKMNSLQTDDTAMYYCASGTGTGAMDYWGQGTSVTVSS
VL: DIVLTQSPATLSVTPGDSVSLSCRASQSISNNLHWYQQKSHESPRLLIFYSSQSISGIPSRFSGSGSGTDFTLRINSVETEDFGMYFCQQSNNWPHTFGRGTKLDMK
notes: as for B4
B13: chimeric human-mouse MAb E87 (human IgG1), non-modified (antibody, V domains shown)
VH: QVQLQQPGADLVRPGTSVKLSCKASGYTFTIYWMHWVKQRPGQGLEWIGVIDPSAGYTNYSQNFKDKATLTVDTSSSTAYMQLNSLTSEDSAVYYCARHGHYFGTSYWYFDVWGTGTTVTVSS
VL: DIVMSQSPSSLAVSVGEKVTMRCKSSQSLLYSRNQKNYLAWYQQKPGQSPKVLIYWASTRESGVPDRFTGSGSGTDFTLTISSVKTEDLSVYYCQQYYSYPFTFGSGTKLEIK
notes: as for B4
B14: chimeric human-mouse MAb E87 N297Q (human IgG1, aglycosylated) (antibody, V domains shown)
VH: QVQLQQPGADLVRPGTSVKLSCKASGYTFTIYWMHWVKQRPGQGLEWIGVIDPSAGYTNYSQNFKDKATLTVDTSSSTAYMQLNSLTSEDSAVYYCARHGHYFGTSYWYFDVWGTGTTVTVSS
VL: DIVMSQSPSSLAVSVGEKVTMRCKSSQSLLYSRNQKNYLAWYQQKPGQSPKVLIYWASTRESGVPDRFTGSGSGTDFTLTISSVKTEDLSVYYCQQYYSYPFTFGSGTKLEIK
notes: as for B4

Target: T1, DENV2 D2S10 envelope (E) protein on virions (dengue virus 2 (DENV2), strain D2S10)
T1 construct: also called DENV2 virions
Assay: ELISA
Details: one partner purified

B1 and B2 are within 1.5-fold of each other in Kd: 0.91 nM for the first, 1.14 nM for the second.

First: B3
Second: B4
The Kd of the first is 2.3-fold lower: 1.18 nM for the first, 2.74 nM for the second. The first binds more tightly here.

B5 and B6 are within 1.5-fold of each other in Kd: 3.46 nM for the first, 2.7 nM for the second.

Going from B7 to B8, the Kd falls from 2.88 nM to 0.34 nM (8.5-fold). The second binds more tightly here.

B9 and B10 are within 1.5-fold of each other in Kd: 0.84 nM for the first, 1.1 nM for the second.

Compared with B11, B12 is 6-fold higher in Kd: 0.14 nM for the first, 0.84 nM for the second. The first binds more tightly here.

B13 and B14 are within 1.5-fold of each other in Kd: 1.07 nM for the first, 1.43 nM for the second.
